Test system: Bacillus subtilis
Assay: cleaved RNA product abundance (RNA/gDNA barcode ratio) relative to median wild-type variant (ratio to wild type); higher = more accumulation of the downstream cleavage product
How it was run: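 Oligos with a 9% error rate were used to build barcoded, mutagenized RNase Y cleavage-site windows within truncated aprE or tetM reporter mRNAs, which were integrated into the B. subtilis chromosome. Cultures were grown in LB at 37°C between OD600 0.0003 and 0.3. Cleaved RNA was gel-selected, reverse transcribed and barcode-sequenced, as were genomic DNA barcodes, and UMIs were collapsed. Cleaved product abundance is the scaled RNA:gDNA barcode ratio, with the median construct carrying the unmutated site as reference.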

[1] = experiment (reporter, strain, medium): exp 2b: truncated aprE reporter, strain BJT200, cleavage site: cggR-gapA (positions -7 to +36 mutated)
[2] = experiment (reporter, strain, medium): exp 4a: truncated aprE reporter, strain BJT201 with 2% xylose (RNase J1 expressed), cleavage site: cggR-gapA (positions -7 to +36 mutated)
[3] = experiment (reporter, strain, medium): exp 8a: truncated aprE reporter, strain BJT201 with 2% xylose (RNase J1 expressed), cleavage site: glnRA (positions -5 to +31 mutated)

Sequence | cleaved RNA product abundance [2] | other results
ACAGACGAAGGAGCCGCAAATAAGTTATTAAGGGATGAATAATCCCTCAATATAAATATCTCTCACTTATTTAAA | 0.932 | cleaved RNA product abundance [1]: 0.972; cleaved RNA product abundance (experiment (reporter, strain, medium): exp 6: tetM reporter, strain 168, cleavage site: cggR-gapA (positions -7 to +36 mutated)): 1.07
ACAGACGAAGGAGCCGCAAAGAAGTTATTAACGGATGAATAATCCCTCAATATACATATCTCTCACTTATTTAAA | 0.231 | 
ACAGACGAAGGAGCCGCAAAGACGTTATTAAGGGATGAATAATCCCTCCATATAAATATCTCTCACTTATTTAAA |  | cleaved RNA product abundance [1]: 0.338
ACAGACGAAGGAGCCGCAAAGAAGTTTTTAAGGGATCAATAATCCCTCAATATAAATATCTCTCACTTATTTAAA | 0.289 | 
CGACATGTCCCGCTTCTTTCATTAATCCGTTAGCAACTGTTTTGCTATATACATTTGCCTTTTAAGAGGAGGAAT |  | cleaved RNA product abundance [3]: 0.413
ACAGACGAAGGAGCCGCAAAAAAGTTATTAAGGGATGAATAATCCCTGAATATAAATATCTCTCACTTATTTAAA | 0.427 | 
ACAGACGAAGGAGCCGCAAAGAAGTTATTAACGCATGAATAATCCCTCAATATAAATATCTCTCACTTATTTAAA | 0.0743 | 
CGACATGTCCCGCTTCTTTCATTATTCCGTTAACAACAGTTTTGCTATATACATTTACCTTTTAAGAGGAGGAAT |  | cleaved RNA product abundance [3]: 0.271
ACAGACGAAGGAGCCGCAACGAAGTTATTAAGTGATGAATAATCCCTCAATATAAATATCTCTCACTTATTTAAA | 0.13 | cleaved RNA product abundance [1]: 0.0825
CGACATGTCCCGCTTCTTTCATTAATCCGTTAGCAACTGTTTCGCTATACACATTTACCTTTTAAGAGGAGGAAT |  | cleaved RNA product abundance [3]: 0.222
ACAGACGAAGGAGCCGCAAAGAAGTAATTAAGGGATGAATAATCCCTCAAAATAAATATCTCTCACTTATTTAAA | 0.215 | cleaved RNA product abundance [1]: 0.16
ACAGACGAAGGAGCCGCAAAGAACTTATTAAGGGATGAATAATTCATCAATATAAATATCTCTCACTTATTTAAA | 0.372 | 
CGACATGTCCCGCTTCTTTCATTAATCCGTTAGCAACGGTTTTACTATATACATTTACCTTTTAAGAGGAGGAAT |  | cleaved RNA product abundance [3]: 0.495
ACAGACGAAGGAGCCGCGAAGAAGTTATTAAGGGATGAATAATTCCTCAATATAAATATCTCTCACTTATTTAAA | 0.684 | 
ACAGACGAAGGAGCCGCAAAGAAGTTATTAAGGGATGAATAACCCCTCCATATAAATATCTCTCACTTATTTAAA | 0.178 | 
ACAGACGAAGGAGCCGCAAAGAAGTAATTAAGGGATTAATAATCCCTCAATATAAATATCTCTCACTTATTTAAA | 0.379 | 
ACAGACGAAGGAGCCGCAAAGAAGTCATTAAGGGATGAATAATCCCCCAATATAAATATCTCTCACTTATTTAAA | 0.113 | 
ACAGACGAAGGAGCCGCAAAGAAGTAATTAAGGGATGAATAATCCCTCAATATAAAAATCTCTCACTTATTTAAA | 0.282 | 
ACAGACGAAGGAGCCGCAAAGAAGTTATTAAGGGATGAATAATACATCAATATAAATATCTCTCACTTATTTAAA | 0.0848 | 
ACAGACGAAGGAGCCGCAAAGAAGGTATTAAGGGATAAATAATCCCTCAATATAAATATCTCTCACTTATTTAAA | 1.29 | 
CGACATGTCCCGCTTCTTTCATTAATACGTTAGAAACTGTTTTGCTATATACATTTACCTTTTAAGAGGAGGAAT |  | cleaved RNA product abundance [3]: 0.292
CGACATGTCCCGCTTCTTTCATTAACCCGTTAGCAACTGTTTTGCTATATATATTTACCTTTTAAGAGGAGGAAT |  | cleaved RNA product abundance [3]: 1.16
ACAGACGAAGGAGCCGCAAAGAAGTTATTAAGGGATAAATAATCCATCAATATAAATATCTCTCACTTATTTAAA | 0.195 | 
ACAGACGAAGGAGCCGCAAAGAAGCTATTAAGGGATAAATAATCCCTCAATATAAATATCTCTCACTTATTTAAA |  | cleaved RNA product abundance [1]: 0.479
ACAGACGAAGGAGCCGCATAGAAGTTATTAAGGAATGAATATTCCCTCAATATAAATATCTCTCACTTATTTAAA | 0.263 | 
CGACATGTCCCGCTTCTTTCATTAATCCGTTAGCAACTGTTTTCCTAAATACATTTACCTTTTAAGAGGAGGAAT |  | cleaved RNA product abundance [3]: 0.23
ACAGACGAAGGAGCCGCAAAGAAGTTTTTAAAGGATGAATAATCCCTCAATATAAATATCTCTCACTTATTTAAA | 0.192 | 
ACAGACGAAGGAGCCGCAAAGAAGTTATTAAGGGATGAATACTCTCTCAATATAAATATCTCTCACTTATTTAAA | 0.226 | 
CGACATGTCCCGCTTCTTTCATTAATCCGTTAGCAACTGTTTTGAAATATACATTTACCTTTTAAGAGGAGGAAT |  | cleaved RNA product abundance [3]: 0.462
